From patent US20040086512A1

Molecular target: GST-Vif fusion protein (HIV-1 (HIV-1NL4-3)) (UniProt P12504)
Test: Vif-Vif binding assay (GST pull-down) without peptide, set as 100%

Sequence of in vitro translated ^35S-labeled HIV-1NL4-3 Vif protein, P12504 1-192 (other; ^35S-labeled (in vitro translation in the presence of ^35S-methionine); other documents disagree on this pair) (P12504 whole entry): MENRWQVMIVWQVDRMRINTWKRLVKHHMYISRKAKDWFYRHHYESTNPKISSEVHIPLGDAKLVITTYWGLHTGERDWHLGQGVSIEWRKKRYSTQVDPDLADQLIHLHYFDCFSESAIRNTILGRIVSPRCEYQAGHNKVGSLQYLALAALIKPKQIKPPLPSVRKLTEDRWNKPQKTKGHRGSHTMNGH
Sequence of GST-Vif fusion protein (HIV-1 (HIV-1NL4-3)) (P12504 whole entry, the tested form may be a part): as the sequence (P12504 whole entry) above

in vitro translated ^35S-labeled HIV-1NL4-3 Vif protein, P12504 1-192 (other; ^35S-labeled (in vitro translation in the presence of ^35S-methionine); other documents disagree on this pair)
^35S-Vif binds with GST-Vif (%): 100%
